{
  "source": "the supplement of paper PMC10065799",
  "about": "“High-throughput profiling of sequence recognition by tyrosine kinases and SH2 domains using bacterial peptide display” (eLife, 2023);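 note: 11-residue human phosphosite peptides and single-mutation variants displayed on the E. coli surface, counted by deep sequencing, each peptide's frequency after selection divided by its frequency in the unselected input library; frequency after pTyr selection over input frequency; kinase dosed for 20-30% of maximal phosphorylation in three min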",
  "data": [
    {"molecular_target": "FGFR3 (UniProt P22607)", "sequence (P22607 whole entry, looked up)": "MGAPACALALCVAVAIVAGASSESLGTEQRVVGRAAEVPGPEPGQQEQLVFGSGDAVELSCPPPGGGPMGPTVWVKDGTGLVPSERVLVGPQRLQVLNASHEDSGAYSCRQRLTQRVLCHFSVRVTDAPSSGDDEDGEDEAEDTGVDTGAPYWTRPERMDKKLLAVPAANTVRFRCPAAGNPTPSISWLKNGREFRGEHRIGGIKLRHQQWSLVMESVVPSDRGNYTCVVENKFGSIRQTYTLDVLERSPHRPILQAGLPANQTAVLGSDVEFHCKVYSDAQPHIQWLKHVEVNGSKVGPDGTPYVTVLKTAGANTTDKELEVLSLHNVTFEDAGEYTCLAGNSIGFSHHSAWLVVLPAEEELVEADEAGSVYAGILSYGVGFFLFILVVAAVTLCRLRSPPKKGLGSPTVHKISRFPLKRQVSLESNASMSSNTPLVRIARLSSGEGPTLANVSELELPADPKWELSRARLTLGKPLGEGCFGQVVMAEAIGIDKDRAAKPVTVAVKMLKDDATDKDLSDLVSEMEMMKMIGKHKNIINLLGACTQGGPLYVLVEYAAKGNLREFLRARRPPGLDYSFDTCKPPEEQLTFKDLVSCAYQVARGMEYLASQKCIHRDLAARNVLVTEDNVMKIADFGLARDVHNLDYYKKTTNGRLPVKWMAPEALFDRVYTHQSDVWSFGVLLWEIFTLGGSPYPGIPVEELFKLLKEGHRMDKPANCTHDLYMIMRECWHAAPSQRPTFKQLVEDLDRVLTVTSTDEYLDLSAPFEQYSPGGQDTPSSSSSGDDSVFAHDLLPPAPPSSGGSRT", "experiment": "phosphorylation enrichment, bacterial display (enrichment ratio); higher = better substrate or ligand; peptides without Tyr show the background", "values": [
      {"sequence": "FFRKFYNKSED [RYR1_Y4864]", "phosphorylation enrichment": 0.562},
      {"sequence": "EALDFYGEVKT [PTEN_Y155_R159K]", "phosphorylation enrichment": 0.823},
      {"sequence": "CTTNHYNFMCN [TP53_Y234_I232N_YF]", "phosphorylation enrichment": 0.556},
      {"sequence": "PMWHPYKADVT [TP53TG5_Y255_V257A]", "phosphorylation enrichment": 0.6},
      {"sequence": "GRSTCYWPRPR [GAGE12J_Y10_Y9C]", "phosphorylation enrichment": 0.531},
      {"sequence": "AKKVFYVIETR [SHH_Y253]", "phosphorylation enrichment": 0.765},
      {"sequence": "FLEEEYVKAVG [TF_Y674_G671E_YF]", "phosphorylation enrichment": 0.721},
      {"sequence": "RSSKTYLKTRS [LPL_Y329_M328T]", "phosphorylation enrichment": 0.583},
      {"sequence": "TNIKRYHIAKG [HARS1_Y150_V155G]", "phosphorylation enrichment": 0.356},
      {"sequence": "QNTADYYDLYG [PTPN11_Y62_G60A]", "phosphorylation enrichment": 14.1},
      {"sequence": "MGIMLYGVDSR [PKD1_Y3143_V3138M]", "phosphorylation enrichment": 0.694},
      {"sequence": "TEALFYTDDTA [ADPRS_Y75_YF]", "phosphorylation enrichment": 0.754},
      {"sequence": "VRVQLYDPDYM [CYP4A22_Y100]", "phosphorylation enrichment": 0.741},
      {"sequence": "HFPDVYAWEQL [ALX3_Y181_R183W_YF]", "phosphorylation enrichment": 0.674},
      {"sequence": "RLLRGYDQYAY [HLA-B_Y137_H137Y]", "phosphorylation enrichment": 0.508},
      {"sequence": "SSTAMYSAPGR [PSMB1_Y8]", "phosphorylation enrichment": 0.464},
      {"sequence": "WNEVGYDDIGG [VCP_Y203_L198W]", "phosphorylation enrichment": 0.724},
      {"sequence": "QNTGFYFDLFG [PTPN11_Y62_D61Y_YF]", "phosphorylation enrichment": 2.42},
      {"sequence": "QTLEAYIRCNK [SPAST_Y604_W607C]", "phosphorylation enrichment": 1.1},
      {"sequence": "TTPFNYSFIFK [RAB14_Y8_A4T_YF]", "phosphorylation enrichment": 0.793},
      {"sequence": "SQSPHYFRSGQ [GPATCH8_Y1038_R1043Q]", "phosphorylation enrichment": 0.405},
      {"sequence": "KSPDSYQKILP [ATM_Y1415_L1420P]", "phosphorylation enrichment": 0.429},
      {"sequence": "ERLWVYGMSSS [F8_Y1728_D1727V]", "phosphorylation enrichment": 0.729},
      {"sequence": "EQLRAYLEGLC [HLA-C_Y183_T187L]", "phosphorylation enrichment": 0.843},
      {"sequence": "TIQDAYMHITS [ADCY10_Y318_A313T]", "phosphorylation enrichment": 0.43},
      {"sequence": "SVTCTYSPALK [TP53_Y126_N131K]", "phosphorylation enrichment": 0.602},
      {"sequence": "GGSTYYIDTNA [ACTL6A_Y69_P66S]", "phosphorylation enrichment": 0.719},
      {"sequence": "FLTQHYDAIPQ [ANG_Y38_K41I]", "phosphorylation enrichment": 0.866},
      {"sequence": "DSNPIYSQIWS [FCRL3_Y662]", "phosphorylation enrichment": 5.05}
    ]},
    {"system": "Fer (mouse)", "experiment": "phosphorylation enrichment, bacterial display (enrichment ratio); higher = better substrate or ligand; peptides without Tyr show the background", "values": [
      {"sequence": "FFRKFYNKSED [RYR1_Y4864]", "phosphorylation enrichment": 0.353},
      {"sequence": "EALDFYGEVKT [PTEN_Y155_R159K]", "phosphorylation enrichment": 0.78},
      {"sequence": "CTTNHYNFMCN [TP53_Y234_I232N_YF]", "phosphorylation enrichment": 0.486},
      {"sequence": "PMWHPYKADVT [TP53TG5_Y255_V257A]", "phosphorylation enrichment": 0.588},
      {"sequence": "GRSTCYWPRPR [GAGE12J_Y10_Y9C]", "phosphorylation enrichment": 0.602},
      {"sequence": "AKKVFYVIETR [SHH_Y253]", "phosphorylation enrichment": 0.401},
      {"sequence": "FLEEEYVKAVG [TF_Y674_G671E_YF]", "phosphorylation enrichment": 0.49},
      {"sequence": "RSSKTYLKTRS [LPL_Y329_M328T]", "phosphorylation enrichment": 0.708},
      {"sequence": "TNIKRYHIAKG [HARS1_Y150_V155G]", "phosphorylation enrichment": 0.33},
      {"sequence": "QNTADYYDLYG [PTPN11_Y62_G60A]", "phosphorylation enrichment": 0.762},
      {"sequence": "MGIMLYGVDSR [PKD1_Y3143_V3138M]", "phosphorylation enrichment": 0.529},
      {"sequence": "TEALFYTDDTA [ADPRS_Y75_YF]", "phosphorylation enrichment": 0.557},
      {"sequence": "VRVQLYDPDYM [CYP4A22_Y100]", "phosphorylation enrichment": 0.599},
      {"sequence": "HFPDVYAWEQL [ALX3_Y181_R183W_YF]", "phosphorylation enrichment": 11.3},
      {"sequence": "RLLRGYDQYAY [HLA-B_Y137_H137Y]", "phosphorylation enrichment": 0.476},
      {"sequence": "SSTAMYSAPGR [PSMB1_Y8]", "phosphorylation enrichment": 0.857},
      {"sequence": "WNEVGYDDIGG [VCP_Y203_L198W]", "phosphorylation enrichment": 0.53},
      {"sequence": "QNTGFYFDLFG [PTPN11_Y62_D61Y_YF]", "phosphorylation enrichment": 1.12},
      {"sequence": "QTLEAYIRCNK [SPAST_Y604_W607C]", "phosphorylation enrichment": 0.452},
      {"sequence": "TTPFNYSFIFK [RAB14_Y8_A4T_YF]", "phosphorylation enrichment": 0.74},
      {"sequence": "SQSPHYFRSGQ [GPATCH8_Y1038_R1043Q]", "phosphorylation enrichment": 0.359},
      {"sequence": "KSPDSYQKILP [ATM_Y1415_L1420P]", "phosphorylation enrichment": 0.531},
      {"sequence": "ERLWVYGMSSS [F8_Y1728_D1727V]", "phosphorylation enrichment": 0.539},
      {"sequence": "EQLRAYLEGLC [HLA-C_Y183_T187L]", "phosphorylation enrichment": 0.607},
      {"sequence": "TIQDAYMHITS [ADCY10_Y318_A313T]", "phosphorylation enrichment": 0.416},
      {"sequence": "SVTCTYSPALK [TP53_Y126_N131K]", "phosphorylation enrichment": 0.353},
      {"sequence": "GGSTYYIDTNA [ACTL6A_Y69_P66S]", "phosphorylation enrichment": 0.453},
      {"sequence": "FLTQHYDAIPQ [ANG_Y38_K41I]", "phosphorylation enrichment": 9.86},
      {"sequence": "DSNPIYSQIWS [FCRL3_Y662]", "phosphorylation enrichment": 19.4}
    ]}
  ]
}
